Assay results published in publication PMC10328401 (Science Advances, 2023).

Molecular target: T1, RsgI2-PD C-terminal fragment after autocleavage at Asn97-Pro98 (Clostridium thermocellum DSM 1313, UniProt A3DC27 98-259)
T1 sequence (looked up): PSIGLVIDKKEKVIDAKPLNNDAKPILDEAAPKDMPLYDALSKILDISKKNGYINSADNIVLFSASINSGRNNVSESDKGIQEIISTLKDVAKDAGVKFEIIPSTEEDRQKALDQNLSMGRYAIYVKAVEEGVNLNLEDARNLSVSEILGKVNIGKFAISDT
Assay: crystal structure

SQEYAYIDVDIN (peptide, UniProt A3DC27 86-97, looked up) [RsgI2-PD N-terminal fragment after autocleavage at Asn97-Pro98 (β1 strand chain, twelve residues)]
binding result: binds
